Laboratory results from US20260125448A1 (published 2026).

Biological target: T1, MAGE-A4 (peptide named MA4-286) peptide on HLA-A*02:01 (human)
T1 peptide: KVLEHVVRV
Assay: multimer staining

binding result: recognises
B1: MA4-286 G6 TCR (TCR, V domains shown)
Valpha: AQTVTQSQPEMSVQEAETVTLSCTYDTSENNYYLFWYKQPPSRQMILVIRQEAYKQQNATENRFSVNFQKAAKSFSLKISDSQLGDTAMYFCASHSGAGSYQLTFGKGTKLSVIP
Vbeta: DTGVSQDPRHKITKRGQNVTFRCDPISEHNRLYWYRQTLGQGPEFLTYFQNEAQLEKSRLLSDRFSAERPKGSFSTLEIQRTEQGDSAMYLCASSPTGGFYEQYFGPGTRLTVT
